Reference: patent US9605283B2, “Microorganism modified for the production of 1,3-propanediol” (INSTITUT NATIONAL DES SCIENCES APPLIQUÉES, priority 2012, dated 2017)

Tests used:
[1] = substrate: O=C(O)C(=O)CCO; experiment: OHB decarboxylase / pyruvate decarboxylase kinetics, Zm-Pdc W392L; type: biochemical, Zymomonas mobilis; conditions: other: 37° C., pH 7, coupled to E. coli YqhD/NADPH
Experimental: (§1) OHB decarboxylase activity was assayed by coupling the decarboxylase activity to the NADPH-dependent reduction of the released 3-hydroxypropanal by purified aldehyde reductase, YqhD, from E. coli. The decarboxylation of pyruvate was coupled to the NADH-dependent reduction of acetaldehyde catalysed by yeast alcohol dehydrogenase. Branched-chain alpha-ketoacid decarboxylase activity was measured on 4-methyl-2-oxovaleric acid by coupling to the NADH-dependent reduction of 3-methylbutanal catalysed by horse liver alcohol dehydrogenase. […] Reactions were started by adding 20 mM 2-oxo-4-hydroxybutyrate (OHB), 10 mM 4-methyl-2-oxovaleric acid (MOV), or 5 mM pyruvate.
(§2) Site-directed mutagenesis of the L. lactis kdcA and the Z. mobilis Pdc genes was carried out using the oligonucleotide pairs listed in Table 9 and the pET28-Ll-kdcA and pET28-Zm-Pdc plasmids, respectively, as the template.
(§3) Mutant enzymes were expressed, purified and tested for OHB decarboxylase, pyruvate decarboxylase and MOV decarboxylase activity as described in Example 4.

[2] = substrate: O=C(O)C(=O)CCO; experiment: OHB decarboxylase / pyruvate decarboxylase kinetics, Zm-Pdc G413N; type: biochemical, Zymomonas mobilis; conditions: other: 37° C., pH 7, coupled to E. coli YqhD/NADPH
Experimental: as §1, §2, §3

[3] = substrate: CC(=O)C(=O)O; experiment: OHB decarboxylase / pyruvate decarboxylase kinetics, Zm-Pdc W392Q; type: biochemical, Zymomonas mobilis; conditions: other: 37° C., pH 7, coupled to yeast alcohol dehydrogenase/NADH
Experimental: as §1, §2, §3

[4] = substrate: O=C(O)C(=O)CCO; experiment: as above; type: biochemical, Zymomonas mobilis; conditions: other: 37° C., pH 7, coupled to E. coli YqhD/NADPH
Experimental: as §1, §2, §3

[5] = substrate: CC(C)CC(=O)C(=O)O; experiment: OHB decarboxylase / branched-chain alpha-ketoacid decarboxylase kinetics, Ll-KdcA wild type; type: biochemical, Lactococcus lactis B1157-NIZO; conditions: other: 37° C., pH 7, coupled to horse liver alcohol dehydrogenase/NADH
Description: (§4) The branched-chain alpha-ketoacid decarboxylase encoding gene Ll-kdcA from L. lactis B1157-NIZO was codon-optimized for expression in E. coli. […] The resulting pET28-Ll-kdcA plasmid was shown by DNA sequencing to have the correct sequence.
(§5) The plasmids were used to transform E. coli BL21 (DE3) star cells and the enzymes carrying an N-terminal hexa-His tag were expressed and purified as described in Example 1. Decarboxylase activity on 2-oxo-4-hydroxybutyrate (OHB), pyruvate (Sigma), and 4-methyl-2-oxovaleric acid (Sigma) was quantified.
as §1

[6] = substrate: O=C(O)C(=O)CCO; experiment: as above; type: biochemical, Lactococcus lactis B1157-NIZO; conditions: other: 37° C., pH 7, coupled to E. coli YqhD/NADPH
Description: as §4, §5, §1

[7] = substrate: CC(C)CC(=O)C(=O)O; experiment: OHB decarboxylase / MOV decarboxylase kinetics, Ll-KdcA G402S; type: biochemical, Lactococcus lactis; conditions: other: 37° C., pH 7, coupled to horse liver alcohol dehydrogenase/NADH
Experimental: as §1, §2, §3

[8] = substrate: O=C(O)C(=O)CCO; experiment: as above; type: biochemical, Lactococcus lactis; conditions: other: 37° C., pH 7, coupled to E. coli YqhD/NADPH
Experimental: as §1, §2, §3

[9] = substrate: CC(C)CC(=O)C(=O)O; experiment: OHB decarboxylase / MOV decarboxylase kinetics, Ll-KdcA V461I; type: biochemical, Lactococcus lactis; conditions: other: 37° C., pH 7, coupled to horse liver alcohol dehydrogenase/NADH
Experimental: as §1, §2, §3

[10] = substrate: O=C(O)C(=O)CCO; experiment: as above; type: biochemical, Lactococcus lactis; conditions: other: 37° C., pH 7, coupled to E. coli YqhD/NADPH
Experimental: as §1, §2, §3

B1: Zymomonas mobilis pyruvate decarboxylase Zm-Pdc variant W392L, SEQ ID No. 192 (Zymomonas mobilis subsp. mobilis ZM4 = ATCC 31821; W392L) (protein)
chain: MSYTVGTYLAERLVQIGLKHHFAVAGDYNLVLLDNLLLNKNMEQVYCCNELNCGFSAEGYARAKGAAAAVVTYSVGALSAFDAIGGAYAENLPVILISGAPNNNDHAAGHVLHHALGKTDYHYQLEMAKNITAAAEAIYTPEEAPAKIDHVIKTALREKKPVYLEIACNIASMPCAAPGPASALFNDEASDEASLNAAVEETLKFIANRDKVAVLVGSKLRAAGAEEAAVKFADALGGAVATMAAAKSFFPEENPHYIGTSWGEVSYPGVEKTMKEADAVIALAPVFNDYSTTGWTDIPDPKKLVLAEPRSVVVNGIRFPSVHLKDYLTRLAQKVSKKTGALDFFKSLNAGELKKAAPADPSAPLVNAEIARQVEALLTPNTTVIAETGDSLFNAQRMKLPNGARVEYEMQWGHIGWSVPAAFGYAVGAPERRNILMVGDGSFQLTAQEVAQMVRLKLPVIIFLINNYGYTIEVMIHDGPYNNIKNWDYAGLMEVFNGNGGYDSGAGKGLKAKTGGELAEAIKVALANTDGPTLIECFIGREDCTEELVKWGKRVAAANSRKPVNKLL
[1]
  Km: 3700 µM

B2: Zymomonas mobilis pyruvate decarboxylase Zm-Pdc variant G413N, SEQ ID No. 194 (Zymomonas mobilis subsp. mobilis ZM4 = ATCC 31821; G413N) (protein)
chain: MSYTVGTYLAERLVQIGLKHHFAVAGDYNLVLLDNLLLNKNMEQVYCCNELNCGFSAEGYARAKGAAAAVVTYSVGALSAFDAIGGAYAENLPVILISGAPNNNDHAAGHVLHHALGKTDYHYQLEMAKNITAAAEAIYTPEEAPAKIDHVIKTALREKKPVYLEIACNIASMPCAAPGPASALFNDEASDEASLNAAVEETLKFIANRDKVAVLVGSKLRAAGAEEAAVKFADALGGAVATMAAAKSFFPEENPHYIGTSWGEVSYPGVEKTMKEADAVIALAPVFNDYSTTGWTDIPDPKKLVLAEPRSVVVNGIRFPSVHLKDYLTRLAQKVSKKTGALDFFKSLNAGELKKAAPADPSAPLVNAEIARQVEALLTPNTTVIAETGDSWFNAQRMKLPNGARVEYEMQWNHIGWSVPAAFGYAVGAPERRNILMVGDGSFQLTAQEVAQMVRLKLPVIIFLINNYGYTIEVMIHDGPYNNIKNWDYAGLMEVFNGNGGYDSGAGKGLKAKTGGELAEAIKVALANTDGPTLIECFIGREDCTEELVKWGKRVAAANSRKPVNKLL
[2]
  Km: 1400 µM

B3: Zymomonas mobilis pyruvate decarboxylase Zm-Pdc variant W392Q, SEQ ID No. 190 (Zymomonas mobilis subsp. mobilis ZM4 = ATCC 31821; W392Q) (protein)
chain: MSYTVGTYLAERLVQIGLKHHFAVAGDYNLVLLDNLLLNKNMEQVYCCNELNCGFSAEGYARAKGAAAAVVTYSVGALSAFDAIGGAYAENLPVILISGAPNNNDHAAGHVLHHALGKTDYHYQLEMAKNITAAAEAIYTPEEAPAKIDHVIKTALREKKPVYLEIACNIASMPCAAPGPASALFNDEASDEASLNAAVEETLKFIANRDKVAVLVGSKLRAAGAEEAAVKFADALGGAVATMAAAKSFFPEENPHYIGTSWGEVSYPGVEKTMKEADAVIALAPVFNDYSTTGWTDIPDPKKLVLAEPRSVVVNGIRFPSVHLKDYLTRLAQKVSKKTGALDFFKSLNAGELKKAAPADPSAPLVNAEIARQVEALLTPNTTVIAETGDSQFNAQRMKLPNGARVEYEMQWGHIGWSVPAAFGYAVGAPERRNILMVGDGSFQLTAQEVAQMVRLKLPVIIFLINNYGYTIEVMIHDGPYNNIKNWDYAGLMEVFNGNGGYDSGAGKGLKAKTGGELAEAIKVALANTDGPTLIECFIGREDCTEELVKWGKRVAAANSRKPVNKLL
[3]
  Km: 9200 µM
[4]
  Km: 2900 µM

B4: Lactococcus lactis branched-chain alpha-ketoacid decarboxylase Ll-KdcA, wild type, SEQ ID No. 130 (Lactococcus lactis) (protein)
chain: MYTVGDYLLDRLHELGIEEIFGVPGDYNLQFLDQIISREDMKWIGNANELNASYMADGYARTKKAAAFLTTFGVGELSAINGLAGSYAENLPVVEIVGSPTSKVQNDGKFVHHTLADGDFKHFMKMHEPVTAARTLLTAENATYEIDRVLSQLLKERKPVYINLPVDVAAAKAEKPALSLEKESSTTNTTEQVILSKIEESLKNAQKPVVIAGHEVISFGLEKTVTQFVSETKLPITTLNFGKSAVDESLPSFLGIYNGKLSEISLKNFVESADFILMLGVKLTDSSTGAFTHHLDENKMISLNIDEGIIFNKVVEDFDFRAVVSSLSELKGIEYEGQYIDKQYEEFIPSSAPLSQDRLWQAVESLTQSNETIVAEQGTSFFGASTIFLKSNSRFIGQPLWGSIGYTFPAALGSQIADKESRHLLFIGDGSLQLTVQELGLSIREKLNPICFIINNDGYTVEREIHGPTQSYNDIPMWNYSKLPETFGATEDRVVSKIVRTENEFVSVMKEAQADVNRMYWIELVLEKEDAPKLLKKMGKLFAEQNK
[5]
  Km: 150 µM
[6]
  Km: 4000 µM

B5: Lactococcus lactis branched chain 2-oxoacid decarboxylase Ll-KdcA variant G402S, SEQ ID No. 196 (Lactococcus lactis; G402S) (protein)
chain: MYTVGDYLLDRLHELGIEEIFGVPGDYNLQFLDQIISREDMKWIGNANELNASYMADGYARTKKAAAFLTTFGVGELSAINGLAGSYAENLPVVEIVGSPTSKVQNDGKFVHHTLADGDFKHFMKMHEPVTAARTLLTAENATYEIDRVLSQLLKERKPVYINLPVDVAAAKAEKPALSLEKESSTTNTTEQVILSKIEESLKNAQKPVVIAGHEVISFGLEKTVTQFVSETKLPITTLNFGKSAVDESLPSFLGIYNGKLSEISLKNFVESADFILMLGVKLTDSSTGAFTHHLDENKMISLNIDEGIIFNKVVEDFDFRAVVSSLSELKGIEYEGQYIDKQYEEFIPSSAPLSQDRLWQAVESLTQSNETIVAEQGTSFFGASTIFLKSNSRFIGQPLWSSIGYTFPAALGSQIADKESRHLLFIGDGSLQLTVQELGLSIREKLNPICFIINNDGYTVEREIHGPTQSYNDIPMWNYSKLPETFGATEDRVVSKIVRTENEFVSVMKEAQADVNRMYWIELVLEKEDAPKLLKKMGKLFAEQNK
[7]
  Km: 1500 µM
[8]
  Km: 1500 µM

B6: Lactococcus lactis branched chain 2-oxoacid decarboxylase Ll-KdcA variant V461I, SEQ ID No. 198 (Lactococcus lactis; V461I) (protein)
chain: MYTVGDYLLDRLHELGIEEIFGVPGDYNLQFLDQIISREDMKWIGNANELNASYMADGYARTKKAAAFLTTFGVGELSAINGLAGSYAENLPVVEIVGSPTSKVQNDGKFVHHTLADGDFKHFMKMHEPVTAARTLLTAENATYEIDRVLSQLLKERKPVYINLPVDVAAAKAEKPALSLEKESSTTNTTEQVILSKIEESLKNAQKPVVIAGHEVISFGLEKTVTQFVSETKLPITTLNFGKSAVDESLPSFLGIYNGKLSEISLKNFVESADFILMLGVKLTDSSTGAFTHHLDENKMISLNIDEGIIFNKVVEDFDFRAVVSSLSELKGIEYEGQYIDKQYEEFIPSSAPLSQDRLWQAVESLTQSNETIVAEQGTSFFGASTIFLKSNSRFIGQPLWGSIGYTFPAALGSQIADKESRHLLFIGDGSLQLTVQELGLSIREKLNPICFIINNDGYTIEREIHGPTQSYNDIPMWNYSKLPETFGATEDRVVSKIVRTENEFVSVMKEAQADVNRMYWIELVLEKEDAPKLLKKMGKLFAEQNK
[9]
  Km: 150 µM
[10]
  Km: 2800 µM
